Target: Bovine plasma fibronectin (bovine) (UniProt P07589)
Test: dynamic single-molecule force spectroscopy (AFM); fibronectin adsorbed on a gold surface; integrin or proteoglycan tethered by PEG to the AFM tip; PBS; trigger force 500 pN, no dwell; retraction speed varied; Bell-Evans fit of rupture force against ln(loading rate), fm = 10^7 s^-1 assumed

Chain of Bovine plasma fibronectin (bovine) (P07589 33-2478): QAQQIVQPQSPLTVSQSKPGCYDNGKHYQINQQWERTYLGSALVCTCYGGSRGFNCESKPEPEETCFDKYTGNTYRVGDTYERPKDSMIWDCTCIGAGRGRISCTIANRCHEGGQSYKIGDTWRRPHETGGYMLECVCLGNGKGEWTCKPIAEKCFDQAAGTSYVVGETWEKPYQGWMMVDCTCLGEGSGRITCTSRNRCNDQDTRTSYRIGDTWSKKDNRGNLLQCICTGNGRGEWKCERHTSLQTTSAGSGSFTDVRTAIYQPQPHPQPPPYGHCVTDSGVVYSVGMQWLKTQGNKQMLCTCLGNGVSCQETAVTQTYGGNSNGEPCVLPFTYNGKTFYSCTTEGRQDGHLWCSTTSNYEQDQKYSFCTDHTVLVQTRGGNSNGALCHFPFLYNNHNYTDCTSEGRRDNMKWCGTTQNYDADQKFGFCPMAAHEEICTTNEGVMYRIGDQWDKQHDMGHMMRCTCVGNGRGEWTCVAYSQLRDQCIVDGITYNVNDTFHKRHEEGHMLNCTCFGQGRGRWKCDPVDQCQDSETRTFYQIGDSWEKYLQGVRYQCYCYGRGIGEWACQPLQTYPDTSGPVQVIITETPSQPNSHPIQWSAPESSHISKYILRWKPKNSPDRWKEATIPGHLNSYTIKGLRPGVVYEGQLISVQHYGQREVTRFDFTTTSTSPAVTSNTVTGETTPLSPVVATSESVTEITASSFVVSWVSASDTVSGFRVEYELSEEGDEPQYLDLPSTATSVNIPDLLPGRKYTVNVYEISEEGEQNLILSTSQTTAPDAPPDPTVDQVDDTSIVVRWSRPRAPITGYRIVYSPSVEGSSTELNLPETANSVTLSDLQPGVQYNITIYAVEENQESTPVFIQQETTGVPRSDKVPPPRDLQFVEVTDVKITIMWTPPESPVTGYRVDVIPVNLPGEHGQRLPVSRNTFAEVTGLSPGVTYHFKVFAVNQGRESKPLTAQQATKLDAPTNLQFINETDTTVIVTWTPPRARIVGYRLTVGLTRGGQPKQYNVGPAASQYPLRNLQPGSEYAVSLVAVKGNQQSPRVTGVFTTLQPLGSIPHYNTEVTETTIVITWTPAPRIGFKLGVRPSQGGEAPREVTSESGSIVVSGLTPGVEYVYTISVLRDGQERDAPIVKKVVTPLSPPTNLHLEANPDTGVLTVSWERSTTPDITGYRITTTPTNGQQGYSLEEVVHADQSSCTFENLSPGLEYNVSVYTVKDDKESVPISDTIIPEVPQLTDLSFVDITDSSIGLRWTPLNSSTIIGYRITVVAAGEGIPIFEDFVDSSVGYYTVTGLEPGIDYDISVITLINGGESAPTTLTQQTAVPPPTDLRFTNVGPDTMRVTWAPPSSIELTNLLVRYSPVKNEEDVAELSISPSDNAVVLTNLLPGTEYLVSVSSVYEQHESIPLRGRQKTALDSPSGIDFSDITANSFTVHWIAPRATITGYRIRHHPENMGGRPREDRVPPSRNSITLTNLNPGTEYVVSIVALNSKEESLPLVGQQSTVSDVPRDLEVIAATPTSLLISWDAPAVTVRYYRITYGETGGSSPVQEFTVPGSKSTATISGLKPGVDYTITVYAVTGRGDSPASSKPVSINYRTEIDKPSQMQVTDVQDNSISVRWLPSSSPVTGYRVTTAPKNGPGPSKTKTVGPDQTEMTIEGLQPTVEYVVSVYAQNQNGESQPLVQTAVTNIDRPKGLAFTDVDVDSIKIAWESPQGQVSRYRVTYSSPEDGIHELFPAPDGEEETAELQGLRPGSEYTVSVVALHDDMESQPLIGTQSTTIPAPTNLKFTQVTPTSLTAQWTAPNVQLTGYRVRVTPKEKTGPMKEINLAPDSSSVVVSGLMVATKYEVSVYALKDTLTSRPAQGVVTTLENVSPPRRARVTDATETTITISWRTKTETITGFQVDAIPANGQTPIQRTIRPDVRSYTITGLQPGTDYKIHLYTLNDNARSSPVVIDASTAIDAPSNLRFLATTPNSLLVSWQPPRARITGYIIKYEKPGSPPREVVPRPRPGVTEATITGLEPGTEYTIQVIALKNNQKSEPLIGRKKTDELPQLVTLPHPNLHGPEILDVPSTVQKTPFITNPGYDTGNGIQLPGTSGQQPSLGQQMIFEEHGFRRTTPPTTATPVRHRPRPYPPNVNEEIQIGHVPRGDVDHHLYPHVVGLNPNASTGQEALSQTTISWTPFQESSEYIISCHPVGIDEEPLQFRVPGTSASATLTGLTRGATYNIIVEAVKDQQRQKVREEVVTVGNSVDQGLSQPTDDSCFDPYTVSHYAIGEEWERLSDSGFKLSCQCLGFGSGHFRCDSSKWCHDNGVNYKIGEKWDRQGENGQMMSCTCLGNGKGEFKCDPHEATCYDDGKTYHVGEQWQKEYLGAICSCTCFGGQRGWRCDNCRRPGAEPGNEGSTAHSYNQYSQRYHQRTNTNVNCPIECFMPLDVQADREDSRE

**Q.** With “Recombinant human α5β1-integrin (from UniProt P08648 42-1049; P05556 21-728) (receptor)” as the substance, how does the dissociation rate Kd, inner barrier read?
**A.** The dissociation rate Kd, inner barrier was 70 s⁻¹.

**Q.** What about the dissociation rate Kd, outer barrier of the same substance?
**A.** Its dissociation rate Kd, outer barrier is 0.18 s⁻¹.
